# Data: patent publication US20170157250A1 (Genmab, published 2017)
# T1: human AXL (full length, on cells) (human (Homo sapiens), UniProt P30530 26-894)
# T1 construct: Used for transfected HEK293 cells and for AXL-positive A431 cells (endogenous AXL); also called hsAXL; Homo sapiens AXL
# T1 sequence: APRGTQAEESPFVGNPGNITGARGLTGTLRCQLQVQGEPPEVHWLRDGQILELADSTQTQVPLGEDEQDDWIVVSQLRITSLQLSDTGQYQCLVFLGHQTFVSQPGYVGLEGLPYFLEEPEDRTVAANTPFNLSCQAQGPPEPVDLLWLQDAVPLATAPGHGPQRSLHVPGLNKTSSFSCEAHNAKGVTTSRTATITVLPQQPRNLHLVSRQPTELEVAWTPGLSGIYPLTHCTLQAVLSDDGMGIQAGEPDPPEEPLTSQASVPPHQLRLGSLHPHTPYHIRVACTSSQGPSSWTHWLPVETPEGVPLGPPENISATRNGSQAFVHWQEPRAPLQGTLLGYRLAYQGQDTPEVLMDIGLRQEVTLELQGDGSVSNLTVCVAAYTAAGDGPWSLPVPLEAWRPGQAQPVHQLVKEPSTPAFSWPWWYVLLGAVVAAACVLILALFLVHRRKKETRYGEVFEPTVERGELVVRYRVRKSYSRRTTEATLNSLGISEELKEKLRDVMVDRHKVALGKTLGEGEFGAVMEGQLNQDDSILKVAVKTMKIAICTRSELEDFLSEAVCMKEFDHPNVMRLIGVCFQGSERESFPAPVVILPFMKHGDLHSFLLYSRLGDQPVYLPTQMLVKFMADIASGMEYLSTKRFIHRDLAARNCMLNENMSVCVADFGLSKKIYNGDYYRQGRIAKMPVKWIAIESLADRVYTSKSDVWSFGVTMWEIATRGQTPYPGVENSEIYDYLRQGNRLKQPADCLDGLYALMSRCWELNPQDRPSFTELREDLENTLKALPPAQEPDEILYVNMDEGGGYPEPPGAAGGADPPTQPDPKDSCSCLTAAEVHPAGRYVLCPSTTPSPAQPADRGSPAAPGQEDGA
# Assays:
# [1] = target: T1, human AXL (full length, on cells); test: flow cytometry, HEK293T cells transiently transfected with full-length human AXL, 4-fold dilutions, PE-anti-human IgG F(ab')2
# Protocol: Binding curves were analyzed using non-linear regression (sigmoidal dose-response with variable slope) using GraphPad Prism V5.04 software (GraphPad Software, San Diego, Calif., USA).
# [2] = target: T1, human AXL (full length, on cells); test: flow cytometry, HEK-293F cells transfected with full length human AXL, 4-fold dilutions of antibody, PE-anti-human IgG F(ab')2
Binder,EC50 (read off the curve) [1],EC50 (read off the curve) [2]
"IgG1-AXL-183-A-vcDuo3 (other, The sheet writes '-A-vcDuo3', the text '-vcDuo3'; also called IgG1-AXL-183-vcDuo3; IgG1-AXL-183-vcDuostatin3) heavy chain: QVQLQQWGAGLLKPSETLSLTCAVYGGSFSGYYWSWIRQPPGKGLEWIGEINQSGSTNYNPSLKSRVTISVDTSKNQFSLKLSSVTAADTSVYYCASGNWDHFFDYWGQGTLVTVSS light chain: DIQMTQSPSSVSASVGDRVTITCRASQGISSWLAWYQHKPGKAPKLLIYATSSLQSGVTSRFSGSGSGTDFTLTISSLQPEDFATYYCQQAKSFPWTFGQGTKVEIK",~0.2 µg/mL,
"IgG1-AXL-107 (antibody, V domains shown, Expressed as IgG1,kappa) VH: EVQLLESGGGLVQPGGSLRLSCAASGFTFSSYAMNWVRQAPGKGLEWVSTTSGSGASTYYADSVKGRFTISRDNSKNTLYLQMNSLRAEDTAVYYCAKIWIAFDIWGQGTMVTVSS VL: not shown",,~0.2 µg/mL
"IgG1-AXL-171 (antibody, V domains shown, Expressed as IgG1,kappa) VH: EVQLLESGGGLVQPGGSLRLSCAASGFTFSSYAMSWVRQAPGKGLEWVSDISVSGGSTYYADSVKGRFTISRDNSKNTLYLQMNSLRAEDTAVYYCAKEGYIWFGESLSYAFDIWGQGTMVTVSS VL: not shown",,~0.2 µg/mL
